Like-named read-outs stand apart in the source and are kept apart here.
B1: non-rDNA bottom ssDNA (ssDNA)
DNA: ATCCCAGCACCAGATTCAGCAATTAAGCTCTAAGCCATGAATTCAAATGACCTCTTATCA
B2: non-rRNA bottom ssRNA (ssRNA)
RNA: AUCCCAGCACCAGAUUCAGCAAUUAAGCUCUAAGCCAUGAAUUCAAAUGACCUCUUAUCA
B3: non-rRNA dsRNA (bottom/top) (dsRNA)
RNA 1: B2 RNA
RNA 2: UGAUAAGAGGUCAUUUGAAUUCAUGGCUUAGAGCUUAAUUGCUGAAUCUGGUGCUGGGAU

Legend:
GST-BRCA1 BRCT WT [1] = biological target: T1, GST-BRCA1 BRCT WT (UniProt P38398 1582-1863); test: EMSA
GST-BRCA1 BRCT WT [2] = biological target: T1, GST-BRCA1 BRCT WT; test: EMSA; remark: listed apart in the source

T1 sequence (P38398 1582-1863): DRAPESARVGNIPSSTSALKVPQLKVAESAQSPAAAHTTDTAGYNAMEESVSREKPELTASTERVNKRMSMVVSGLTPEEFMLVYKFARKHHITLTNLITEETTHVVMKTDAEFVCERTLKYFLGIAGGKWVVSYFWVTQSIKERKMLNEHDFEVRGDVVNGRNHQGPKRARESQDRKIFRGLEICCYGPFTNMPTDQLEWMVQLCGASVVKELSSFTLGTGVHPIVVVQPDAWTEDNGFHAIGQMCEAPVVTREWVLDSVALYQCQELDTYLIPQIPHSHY

Row | Binder | binding result (GST-BRCA1 BRCT WT [1]) | binding result (GST-BRCA1 BRCT WT [2])
1 | B1 | binds | 
2 | B2 |  | binds
3 | B3 |  | no binding
